B1: FBLN1 (protein, UniProt P23142 30-703, looked up)
Fibulin-1: DVLLEACCADGHRMATHQKDCSLPYATESKECRMVQEQCCHSQLEELHCATGISLANEQDRCATPHGDNASLEATFVKRCCHCCLLGRAAQAQGQSCEYSLMVGYQCGQVFQACCVKSQETGDLDVGGLQETDKIIEVEEEQEDPYLNDRCRGGGPCKQQCRDTGDEVVCSCFVGYQLLSDGVSCEDVNECITGSHSCRLGESCINTVGSFRCQRDSSCGTGYELTEDNSCKDIDECESGIHNCLPDFICQNTLGSFRCRPKLQCKSGFIQDALGNCIDINECLSISAPCPIGHTCINTEGSYTCQKNVPNCGRGYHLNEEGTRCVDVDECAPPAEPCGKGHRCVNSPGSFRCECKTGYYFDGISRMCVDVNECQRYPGRLCGHKCENTLGSYLCSCSVGFRLSVDGRSCEDINECSSSPCSQECANVYGSYQCYCRRGYQLSDVDGVTCEDIDECALPTGGHICSYRCINIPGSFQCSCPSSGYRLAPNGRNCQDIDECVTGIHNCSINETCFNIQGGFRCLAFECPENYRRSAATLQQEKTDTVRCIKSCRPNDVTCVFDPVHTISHTVISLPTFREFTRPEEIIFLRAITPPHPASQANIIFDITEGNLRDSFDIIKRYMDGMTVGVVRQVRPIVGPFHAVLKLEMNYVVGGVVSHRNVVNVHIFVSEYWF
B2: FES (protein, UniProt P07332 1-822, looked up)
Tyrosine-protein kinase …: MGFSSELCSPQGHGVLQQMQEAELRLLEGMRKWMAQRVKSDREYAGLLHHMSLQDSGGQSRAISPDSPISQSWAEITSQTEGLSRLLRQHAEDLNSGPLSKLSLLIRERQQLRKTYSEQWQQLQQELTKTHSQDIEKLKSQYRALARDSAQAKRKYQEASKDKDRDKAKDKYVRSLWKLFAHHNRYVLGVRAAQLHHQHHHQLLLPGLLRSLQDLHEEMACILKEILQEYLEISSLVQDEVVAIHREMAAAAARIQPEAEYQGFLRQYGSAPDVPPCVTFDESLLEEGEPLEPGELQLNELTVESVQHTLTSVTDELAVATEMVFRRQEMVTQLQQELRNEEENTHPRERVQLLGKRQVLQEALQGLQVALCSQAKLQAQQELLQTKLEHLGPGEPPPVLLLQDDRHSTSSSEQEREGGRTPTLEILKSHISGIFRPKFSLPPPLQLIPEVQKPLHEQLWYHGAIPRAEVAELLVHSGDFLVRESQGKQEYVLSVLWDGLPRHFIIQSLDNLYRLEGEGFPSIPLLIDHLLSTQQPLTKKSGVVLHRAVPKDKWVLNHEDLVLGEQIGRGNFGEVFSGRLRADNTLVAVKSCRETLPPDLKAKFLQEARILKQYSHPNIVRLIGVCTQKQPIYIVMELVQGGDFLTFLRTEGARLRVKTLLQMVGDAAAGMEYLESKCCIHRDLAARNCLVTEKNVLKISDFGMSREEADGVYAASGGLRQVPVKWTAPEALNYGRYSSESDVWSFGILLWETFSLGASPYPNLSNQQTREFVEKGGRLPCPELCPDAVFRLMEQCWAYEPGQRPSFSTIYQELQSIRKRHR
B3: FIGNL1 (protein, UniProt Q6PIW4 1-674, looked up)
Fidgetin-like protein 1: MQTSSSRSVHLSEWQKNYFAITSGICTGPKADAYRAQILRIQYAWANSEISQVCATKLFKKYAEKYSAIIDSDNVESGLNNYAENILTLAGSQQTDSDKWQSGLSINNVFKMSSVQKMMQAGKKFKDSLLEPALASVVIHKEATVFDLPKFSVCGSSQESDSLPNSAHDRDRTQDFPESNRLKLLQNAQPPMVTNTARTCPTFSAPVGESATAKFHVTPLFGNVKKENHSSAKENIGLNVFLSNQSCFPAACENPQRKSFYGSGTIDALSNPILNKACSKTEDNGPKEDSSLPTFKTAKEQLWVDQQKKYHQPQRASGSSYGGVKKSLGASRSRGILGKFVPPIPKQDGGEQNGGMQCKPYGAGPTEPAHPVDERLKNLEPKMIELIMNEIMDHGPPVNWEDIAGVEFAKATIKEIVVWPMLRPDIFTGLRGPPKGILLFGPPGTGKTLIGKCIASQSGATFFSISASSLTSKWVGEGEKMVRALFAVARCQQPAVIFIDEIDSLLSQRGDGEHESSRRIKTEFLVQLDGATTSSEDRILVVGATNRPQEIDEAARRRLVKRLYIPLPEASARKQIVINLMSKEQCCLSEEEIEQIVQQSDAFSGADMTQLCREASLGPIRSLQTADIATITPDQVRPIAYIDFENAFRTVRPSVSPKDLELYENWNKTFGCGK
B4: FRMPD4 (protein, UniProt Q14CM0 1-1322, looked up)
FERM and PDZ …: MDVFSFVKIAKLSSHRTKSSGWPPPSGTWGLSQVPPYGWEMTANRDGRDYFINHMTQAIPFDDPRLESCQIIPPAPRKVEMRRDPVLGFGFVAGSEKPVVVRSVTPGGPSEGKLIPGDQIVMINDEPVSAAPRERVIDLVRSCKESILLTVIQPYPSPKSAFISAAKKARLKSNPVKVRFSEEVIINGQVSETVKDNSLLFMPNVLKVYLENGQTKSFRFDCSTSIKDVILTLQEKLSIKGIEHFSLMLEQRTEGAGTKLLLLHEQETLTQVTQRPSSHKMRCLFRISFVPKDPIDLLRRDPVAFEYLYVQSCNDVVQERFGPELKYDIALRLAALQMYIATVTTKQTQKISLKYIEKEWGLETFLPSAVLQSMKEKNIKKALSHLVKANQNLVPPGKKLSALQAKVHYLKFLSDLRLYGGRVFKATLVQAEKRSEVTLLVGPRYGISHVINTKTNLVALLADFSHVNRIEMFSEEESLVRVELHVLDVKPITLLMESSDAMNLACLTAGYYRLLVDSRRSIFNMANKKNTATQETGPENKGKHNLLGPDWNCIPQMTTFIGEGEQEAQITYIDSKQKTVEITDSTMCPKEHRHLYIDNAYSSDGLNQQLSQPGEAPCEADYRSLAQRSLLTLSGPETLKKAQESPRGAKVSFIFGDFALDDGISPPTLGYETLLDEGPEMLEKQRNLYIGSANDMKGLDLTPEAEGIQFVENSVYANIGDVKSFQAAEGIEEPLLHDICYAENTDDAEDEDEVSCEEDLVVGEMNQPAILNLSGSSDDIIDLTSLPPPEGDDNEDDFLLRSLNMAIAAPPPGFRDSSDEEDSQSQAASFPEDKEKGSSLQNDEIPVSLIDAVPTSAEGKCEKGLDNAVVSTLGALEALSVSEEQQTSDNSGVAILRAYSPESSSDSGNETNSSEMTESSELATAQKQSENLSRMFLATHEGYHPLAEEQTEFPASKTPAGGLPPKSSHALAARPATDLPPKVVPSKQLLHSDHMEMEPETMETKSVTDYFSKLHMGSVAYSCTSKRKSKLADGEGKAPPNGNTTGKKQQGTKTAEMEEEASGKFGTVSSRDSQHLSTFNLERTAFRKDSQRWYVATEGGMAEKSGLEAATGKTFPRASGLGAREAEGKEEGAPDGETSDGSGLGQGDRFLTDVTCASSAKDLDNPEDADSSTCDHPSKLPEADESVARLCDYHLAKRMSSLQSEGHFSLQSSQGSSVDAGCGTGSSGSACATPVESPLCPSLGKHLIPDASGKGVNYIPSEERAPGLPNHGATFKELHPQTEGMCPRMTVPALHTAINTEPLFGTLRDGCHRLPKIKETTV
B5: FUCA2 (protein, UniProt Q9BTY2 29-467, looked up)
Plasma alpha-L-fucosidase: HSATRFDPTWESLDARQLPAWFDQAKFGIFIHWGVFSVPSFGSEWFWWYWQKEKIPKYVEFMKDNYPPSFKYEDFGPLFTAKFFNANQWADIFQASGAKYIVLTSKHHEGFTLWGSEYSWNWNAIDEGPKRDIVKELEVAIRNRTDLRFGLYYSLFEWFHPLFLEDESSSFHKRQFPVSKTLPELYELVNNYQPEVLWSDGDGGAPDQYWNSTGFLAWLYNESPVRGTVVTNDRWGAGSICKHGGFYTCSDRYNPGHLLPHKWENCMTIDKLSWGYRREAGISDYLTIEELVKQLVETVSCGGNLLMNIGPTLDGTISVVFEERLRQMGSWLKVNGEAIYETHTWRSQNDTVTPDVWYTSKPKEKLVYAIFLKWPTSGQLFLGHPKAILGATEVKLLGHGQPLNWISLEQNGIMVELPQLTIHQMPCKWGWALALTNVI
B6: GNB2 (protein, UniProt P62879 2-340, looked up)
Guanine nucleotide-binding …: SELEQLRQEAEQLRNQIRDARKACGDSTLTQITAGLDPVGRIQMRTRRTLRGHLAKIYAMHWGTDSRLLVSASQDGKLIIWDSYTTNKVHAIPLRSSWVMTCAYAPSGNFVACGGLDNICSIYSLKTREGNVRVSRELPGHTGYLSCCRFLDDNQIITSSGDTTCALWDIETGQQTVGFAGHSGDVMSLSLAPDGRTFVSGACDASIKLWDVRDSMCRQTFIGHESDINAVAFFPNGYAFTTGSDDATCRLFDLRADQELLMYSHDNIICGITSVAFSRSGRLLLAGYDDFNCNIWDAMKGDRAGVLAGHDNRVSCLGVTDDGMAVATGSWDSFLKIWN
B7: HOMER3 (protein, UniProt Q9NSC5 1-361, looked up)
Homer protein homolog 3: MSTAREQPIFSTRAHVFQIDPATKRNWIPAGKHALTVSYFYDATRNVYRIISIGGAKAIINSTVTPNMTFTKTSQKFGQWADSRANTVYGLGFASEQHLTQFAEKFQEVKEAARLAREKSQDGGELTSPALGLASHQVPPSPLVSANGPGEEKLFRSQSADAPGPTERERLKKMLSEGSVGEVQWEAEFFALQDSNNKLAGALREANAAAAQWRQQLEAQRAEAERLRQRVAELEAQAASEVTPTGEKEGLGQGQSLEQLEALVQTKDQEIQTLKSQTGGPREALEAAEREETQQKVQDLETRNAELEHQLRAMERSLEEARAERERARAEVGRAAQLLDVSLFELSELREGLARLAEAAP

Tests used:
[1] = tested on: HCV ORFs (Gal4-DB fusions); format: binding, HCV genotype 1b, isolate con1; details: human protein listed by gene symbol; the value names the HCV protein it interacts with
[2] = target: T1, HCV ORFs (Gal4-DB fusions) (Hepatitis C virus genotype 1b, UniProt Q9WMX2); format: binding, HCV genotype 1b, isolate con1; details: HCV protein NS3 as bait; human protein as prey
T1 construct: expressed in transfected cells; host or cells: Saccharomyces cerevisiae MAV203 (IMAP1) / AH109 (IMAP2)
T1 sequence (Q9WMX2 1027-1657): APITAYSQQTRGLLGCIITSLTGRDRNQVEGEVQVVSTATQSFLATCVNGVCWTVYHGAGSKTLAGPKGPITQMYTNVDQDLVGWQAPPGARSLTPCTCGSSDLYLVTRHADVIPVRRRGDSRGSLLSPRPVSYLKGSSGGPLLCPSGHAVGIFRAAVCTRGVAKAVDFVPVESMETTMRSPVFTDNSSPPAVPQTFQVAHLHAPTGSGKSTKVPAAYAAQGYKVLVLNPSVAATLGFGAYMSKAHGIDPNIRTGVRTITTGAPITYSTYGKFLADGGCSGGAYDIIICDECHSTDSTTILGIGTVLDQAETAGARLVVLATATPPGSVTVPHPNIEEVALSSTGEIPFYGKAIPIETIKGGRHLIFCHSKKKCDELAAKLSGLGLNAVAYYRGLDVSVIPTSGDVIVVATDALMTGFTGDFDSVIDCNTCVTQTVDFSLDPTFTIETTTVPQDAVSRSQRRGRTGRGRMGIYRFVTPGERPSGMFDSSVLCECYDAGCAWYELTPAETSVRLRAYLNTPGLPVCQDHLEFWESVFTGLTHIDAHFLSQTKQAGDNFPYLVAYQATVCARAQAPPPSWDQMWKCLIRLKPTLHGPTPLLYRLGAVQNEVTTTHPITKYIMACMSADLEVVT

HCV proteins = target: T2, HCV proteins (Hepatitis C virus genotype 1b, UniProt Q9WMX2); assay: Validation by Y2H pairwise matrices; format: binding; details: validation of interaction with HCV protein NS3;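 note: yeast two-hybrid pairwise tests of interactions first found in Y2H screens of HCV bait proteins against human cDNA libraries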
T2 construct: expressed in transfected cells
T2 sequence (Q9WMX2 1027-1657): as above
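Throughout, for IMAP Y2H IMAP1 (number of IST): yeast two-hybrid screens using HCV genotype 1b proteins fused to Gal4-DB as baits against prey cDNA libraries from human spleen and foetal brain, IMAP1 via transformation and IMAP2 via mating.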
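Throughout, for IMAP Y2H IMAP2 (number of IST): yeast two-hybrid screens using HCV genotype 1b proteins fused to Gal4-DB as baits against prey cDNA libraries from human spleen and foetal brain, IMAP1 via transformation and IMAP2 via mating.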
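Throughout, for Interaction with viral protein: yeast two-hybrid screens using HCV genotype 1b proteins fused to Gal4-DB as baits against prey cDNA libraries from human spleen and foetal brain, IMAP1 via transformation and IMAP2 via mating.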

Molecule	Interaction with viral protein [1]	IMAP Y2H IMAP1 (number of IST) [2]	Y2H matrices (HCV proteins)	IMAP Y2H IMAP2 (number of IST) [2]
B1	NS3	8	+	–
B2	NS3	1	+	–
B3	NS3	1	+	–
B4	NS3	1	+	–
B5	NS3	2	+	–
B6	NS3	1	+	–
B7	NS3	4	+	1

Reference: US20110091994A1, “Methods for Screening Compounds for Treating and/or Preventing an Hepatitis C Virus Infection” (priority 2008, published 2011)
